Reference: paper PMC9164268

T1: surfactant protein D (human), P35247
T1 chain: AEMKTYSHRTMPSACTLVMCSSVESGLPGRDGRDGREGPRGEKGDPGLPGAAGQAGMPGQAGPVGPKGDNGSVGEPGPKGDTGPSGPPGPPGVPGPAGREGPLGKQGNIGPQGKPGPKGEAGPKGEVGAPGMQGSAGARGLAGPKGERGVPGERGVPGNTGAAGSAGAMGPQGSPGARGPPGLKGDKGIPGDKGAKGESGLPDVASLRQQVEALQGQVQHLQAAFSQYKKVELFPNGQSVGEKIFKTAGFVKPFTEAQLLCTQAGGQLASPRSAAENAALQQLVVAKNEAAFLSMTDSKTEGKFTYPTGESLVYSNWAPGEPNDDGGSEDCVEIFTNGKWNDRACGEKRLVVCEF

T2: MAA-adducted surfactant protein D (human), P35247
T2 chain: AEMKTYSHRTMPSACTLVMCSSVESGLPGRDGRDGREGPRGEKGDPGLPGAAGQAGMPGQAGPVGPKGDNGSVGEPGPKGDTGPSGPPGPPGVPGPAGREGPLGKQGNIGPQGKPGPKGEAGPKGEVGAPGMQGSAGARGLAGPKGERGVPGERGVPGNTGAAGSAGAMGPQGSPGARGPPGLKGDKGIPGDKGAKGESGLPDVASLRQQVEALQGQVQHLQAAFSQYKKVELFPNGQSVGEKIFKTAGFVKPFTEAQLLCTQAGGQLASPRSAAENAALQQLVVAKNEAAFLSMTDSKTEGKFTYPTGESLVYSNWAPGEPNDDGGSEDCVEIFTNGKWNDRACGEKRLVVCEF


How the values were obtained:
[1] = biological target: T1, surfactant protein D (human), P35247; assay: SEC; Sephadex G-200 column (1.5 x 12 cm, 20 mL), 0.05 M HNaPO4, 0.15 M NaCl, pH 7; 1.5 mg/mL protein loaded, 12 x 1 mL fractions, isocratic; protein in fractions by Bradford assay and slot blot with anti-SPD and anti-MAA; settings: remark: other sources report otherwise
[2] = biological target: T2, MAA-adducted surfactant protein D …; assay: as above; settings: remark: other sources report otherwise

| Binder | stoichiometry N [1] | stoichiometry N [2] |
| --- | --- | --- |
| surfactant protein D, P35247 21-375 (natural protein) AEMKTYSHRTMPSACTLVMCSSVESGLPGRDGRDGREGPRGEKGDPGLPGAAGQAGMPGQAGPVGPKGDNGSVGEPGPKGDTGPSGPPGPPGVPGPAGREGPLGKQGNIGPQGKPGPKGEAGPKGEVGAPGMQGSAGARGLAGPKGERGVPGERGVPGNTGAAGSAGAMGPQGSPGARGPPGLKGDKGIPGDKGAKGESGLPDVASLRQQVEALQGQVQHLQAAFSQYKKVELFPNGQSVGEKIFKTAGFVKPFTEAQLLCTQAGGQLASPRSAAENAALQQLVVAKNEAAFLSMTDSKTEGKFTYPTGESLVYSNWAPGEPNDDGGSEDCVEIFTNGKWNDRACGEKRLVVCEF | 3 |  |
| MAA-adducted surfactant protein D, P35247 21-375 (natural protein, here or on the partner: malondialdehyde-acetaldehyde (MAA) adducts; MAA adduction occurs primarily on lysine residues; positions not given; malondialdehyde-acetaldehyde (MAA) adducts; MAA adduction occurs primarily on lysine residues; positions not given) AEMKTYSHRTMPSACTLVMCSSVESGLPGRDGRDGREGPRGEKGDPGLPGAAGQAGMPGQAGPVGPKGDNGSVGEPGPKGDTGPSGPPGPPGVPGPAGREGPLGKQGNIGPQGKPGPKGEAGPKGEVGAPGMQGSAGARGLAGPKGERGVPGERGVPGNTGAAGSAGAMGPQGSPGARGPPGLKGDKGIPGDKGAKGESGLPDVASLRQQVEALQGQVQHLQAAFSQYKKVELFPNGQSVGEKIFKTAGFVKPFTEAQLLCTQAGGQLASPRSAAENAALQQLVVAKNEAAFLSMTDSKTEGKFTYPTGESLVYSNWAPGEPNDDGGSEDCVEIFTNGKWNDRACGEKRLVVCEF |  | 3 |
